In one assay the target is T1, mouse TfR1 protein (mouse, UniProt Q62351 1-763).
T1 construct: whole, on cells; Endogenous protein in mouse tissue sections
In words: immunofluorescence on normal mouse liver frozen tissue sections.

For assay [1], the target named is T2, human transferrin receptor protein 1 (TfR1) (human, UniProt P02786 1-760).
T2 construct: whole, on cells; Endogenous full-length protein of human cell lines; no recombinant construct was used; also called transferrin receptor 1; CD71
T2 sequence (P02786 whole entry): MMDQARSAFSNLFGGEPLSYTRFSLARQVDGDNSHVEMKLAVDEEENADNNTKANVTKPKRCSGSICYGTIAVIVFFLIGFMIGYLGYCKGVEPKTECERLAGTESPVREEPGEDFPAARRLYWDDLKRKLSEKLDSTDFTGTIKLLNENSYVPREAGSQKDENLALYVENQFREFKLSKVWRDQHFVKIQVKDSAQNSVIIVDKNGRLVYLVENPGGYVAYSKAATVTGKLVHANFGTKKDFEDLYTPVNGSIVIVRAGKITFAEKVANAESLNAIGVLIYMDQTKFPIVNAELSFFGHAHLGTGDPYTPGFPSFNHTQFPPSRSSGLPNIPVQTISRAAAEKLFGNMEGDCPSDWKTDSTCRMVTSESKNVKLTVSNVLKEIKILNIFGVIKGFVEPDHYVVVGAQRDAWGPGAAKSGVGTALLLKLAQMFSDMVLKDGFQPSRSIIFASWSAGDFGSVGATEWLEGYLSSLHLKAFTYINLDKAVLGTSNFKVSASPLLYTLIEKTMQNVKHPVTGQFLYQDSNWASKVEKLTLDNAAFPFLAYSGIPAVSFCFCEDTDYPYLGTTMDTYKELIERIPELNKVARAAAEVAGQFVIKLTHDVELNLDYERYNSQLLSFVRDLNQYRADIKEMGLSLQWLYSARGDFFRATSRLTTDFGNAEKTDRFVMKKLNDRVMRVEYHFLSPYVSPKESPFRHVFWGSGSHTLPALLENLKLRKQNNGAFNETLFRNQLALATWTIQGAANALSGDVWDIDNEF
In words: immunoprecipitation with 3F3-FMA from HT-1080 cell lysate and mass spectrometry; staining lost after siRNA knockdown of TfR1. As for the experimental part:
The beads were used for mass spectrometry.
Trypsin digestion was performed overnight at 37° C. Supernatants were collected and dried down in a speed-vac, and peptides were dissolved in a solution containing 3% acetonitrile and 0.1% formic acid. Peptides were desalted with C18 disk-packed stage-tips. Desalted peptides were injected onto an EASY-Spray PepMap RSLC C18 50 cm×75 μm column (Thermo Scientific), which was coupled to the Orbitrap Fusion Tribrid mass spectrometer (Thermo Scientific). Peptides were eluted with a non-linear 110 min gradient of 5-30% buffer B (0.1% (v/v) formic acid, 100% acetonitrile) at a flow rate of 250 nl/min. The column temperature was maintained at a constant 50° C. during all experiments. Thermo Scientific™ Orbitrap Fusion™ Tribrid™ mass spectrometer was used for peptide MS/MS analysis. Survey scans of peptide precursors were performed from 400 to 1575 m/z at 120K FWHM resolution (at 200 m/z) with a 2×10⁵ ion count target and a maximum injection time of 50 ms. […] CID fragmentation was applied with 35% collision energy and resulting fragments were detected using the rapid scan rate in the ion trap. […]
The antigen of 3F3-FMA was identified using immunoprecipitation and mass spectrometry. […] Then magnetic beads were added and washed, and bead-immobilized proteins were analyzed by mass spectrometry. […]

T1 sequence (Q62351 whole entry): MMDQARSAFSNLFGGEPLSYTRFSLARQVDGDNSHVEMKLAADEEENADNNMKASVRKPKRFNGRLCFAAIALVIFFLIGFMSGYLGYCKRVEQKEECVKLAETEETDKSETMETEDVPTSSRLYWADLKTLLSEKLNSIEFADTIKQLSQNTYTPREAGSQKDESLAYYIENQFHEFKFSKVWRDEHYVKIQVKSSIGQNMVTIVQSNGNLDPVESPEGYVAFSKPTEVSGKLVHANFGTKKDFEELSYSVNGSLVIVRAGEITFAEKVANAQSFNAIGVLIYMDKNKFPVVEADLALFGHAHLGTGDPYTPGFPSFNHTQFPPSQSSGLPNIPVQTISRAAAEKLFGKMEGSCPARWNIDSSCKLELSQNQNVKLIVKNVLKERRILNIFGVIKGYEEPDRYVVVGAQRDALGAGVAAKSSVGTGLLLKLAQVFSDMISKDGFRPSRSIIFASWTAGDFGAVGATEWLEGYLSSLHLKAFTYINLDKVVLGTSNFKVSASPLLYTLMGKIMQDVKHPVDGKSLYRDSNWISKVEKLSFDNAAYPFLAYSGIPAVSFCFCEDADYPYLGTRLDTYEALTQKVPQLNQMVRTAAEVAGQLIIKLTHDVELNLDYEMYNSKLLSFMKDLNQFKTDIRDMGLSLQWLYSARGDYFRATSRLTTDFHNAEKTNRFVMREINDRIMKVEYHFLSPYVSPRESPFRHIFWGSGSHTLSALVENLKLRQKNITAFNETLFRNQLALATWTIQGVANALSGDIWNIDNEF

B1: 3F3 anti-Ferroptotic Membrane Antibody (3F3-FMA) (antibody, V domains shown)
VH: EVLLQQSGTELVRPGALVKLSCKASGFNIQDLYIHWVKQRPEQGLEWIGWIDPETDNTIYDPKFQGKASITADTSSNTAYLQLSSLTSEDTAMYYCSTGLLQWYFDVWGAGTAVTVSS
VL: DIVMTQSPSSLAMSIGQKVTMRCKSSQSLLNSYNQKNCLAWYQQKPGQSPKLLLYFVSTRESGVPDRFIGSGSGTDFTLTISSVQAEDLADYFCQQHYSTPLTFGAGTKLELK
notes: the entries 1 and 2 should match these; also called mAb 3F3 FMA; clone FH3F3
Turning to B1, the binding result (with mouse TfR1 protein; in assay [1]) was “binds” throughout.
